Test results reported in article PMC1810434, “Breakage-Reunion Domain of Streptococcus pneumoniae Topoisomerase IV: Crystal Structure of a Gram-Positive Quinolone Target” (PLoS ONE, 2007).

Biological target: the molecule itself
Experiment: crystal structure; hanging drop vapor diffusion at ambient temperature; space group I222; solved by molecular replacement; asymmetric unit of two biological dimers; wild-type data to 2.7 Å, Cys426 data to 3.25 Å

| Protein | binding result |
| --- | --- |
| ParC55, 55.5 kDa N-terminal breakage-reunion domain of Streptococcus pneumoniae topoisomerase IV subunit A (ParC) (domain or fragment, ParC (topoisomerase IV subunit A), S. pneumoniae strain 7785, residues 1-490, with the substitution I489L needed for plasmid construction; also called wild-type ParC55; N-terminal ParC domain; source: E. coli, pET29a expression plasmid, purified by Ni2+-NTA chromatography; not shown: His6, C-terminal, kept) MSNIQNMSLEDIMGERFGRYSKYIIQDRALPDIRDGLKPVQRRILYSMNKDSNTFDKSYRKSAKSVGNIMGNFHPHGDSSIYDAMVRMSQNWKNREILVEMHGNNGSMDGDPPAAMRYTEARLSEIAGYLLQDIEKKTVPFAWNFDDTEKEPTVLPAAFPNLLVNGSTGISAGYATDIPPHNLAEVIDAAVYMIDHPTAKIDKLMEFLPGPDFPTGAIIQGRDEIKKAYETGKGRVVVRSKTEIEKLKGGKEQIVIIEIPYEINKANLVKKIDDVRVNNKVAGIAEVRDESDRDGLRIAIELKKDANTELVLNYLFKYTDLQINYNFNMVAIDNFTPRQVGIVPILSSYIAHRREVILARSRFDKEKAEKRLHIVEGLIRVISILDEVIALIRASENKADAKENLKVSYDFTEEQAEAIVTLQLYRLTNTDVVVLQEEEAELREKIAMLAAIIGDERTMYNLMKKELREVKKKFATPRLSSLEDTAKALE | binds |
| ParC55 Cys426 (ParC55 with Arg426 changed to Cys) (domain or fragment, PDB 2NOV holds the parent (wild-type ParC55); No entry of its own is named for the Cys426 data set; also called ParC Cys426; Cys426 mutant; source: E. coli, purified by Ni2+-NTA chromatography as for wild-type ParC55) MSNIQNMSLEDIMGERFGRYSKYIIQDRALPDIRDGLKPVQRRILYSMNKDSNTFDKSYRKSAKSVGNIMGNFHPHGDSSIYDAMVRMSQNWKNREILVEMHGNNGSMDGDPPAAMRYTEARLSEIAGYLLQDIEKKTVPFAWNFDDTEKEPTVLPAAFPNLLVNGSTGISAGYATDIPPHNLAEVIDAAVYMIDHPTAKIDKLMEFLPGPDFPTGAIIQGRDEIKKAYETGKGRVVVRSKTEIEKLKGGKEQIVIIEIPYEINKANLVKKIDDVRVNNKVAGIAEVRDESDRDGLRIAIELKKDANTELVLNYLFKYTDLQINYNFNMVAIDNFTPRQVGIVPILSSYIAHRREVILARSRFDKEKAEKRLHIVEGLIRVISILDEVIALIRASENKADAKENLKVSYDFTEEQAEAIVTLQLYCLTNTDVVVLQEEEAELREKIAMLAAIIGDERTMYNLMKKELREVKKKFATPRLSSLEDTAKALE | binds |
